Data as given in patent publication US12312397B2, “Anti-O2 antibodies and uses thereof” (priority 2016, dated 2025).

Assays:
[1] = system: O2 LPS activation of NF-κB in RAW264.7-lux cells; assay: LPS neutralization assay (NF-κB luciferase, RAW264.7-lux), O2 LPS; format: cell-based, murine; conditions: for neutralizing activity against O2 LPS (NF-κB activation): human IgG1 format; for neutralization of LPS-O2: secondary screening
Summary of the method: (§1)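 Serially diluted mAbs (human IgG1) pre-mixed 1:1 with LPS at 4 °C for 1 hr, then diluted 1:10 onto RAW264.7-lux cells carrying an NF-κB-driven firefly luciferase; 2.5 h at 37 °C. Luminescence read; % inhibition relative to no-antibody and negative-control mAb wells.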

[2] = system: KPC strain Kp961842_O2; assay: Lethal pneumonia model, KPC strain Kp961842_O2; format: in vivo, Klebsiella pneumoniae; conditions: C57/BL6 mice, 2e8 CFU; mAb 2 mg/kg 1 hour post infection; survival
Protocol: (§2) C57/BL6 mice were obtained from Jackson Laboratories and maintained in a special pathogen-free facility. All animal experiments were conducted in accordance with Institutional Animal Care and Use Committee (IACUC) protocol and guidance. K. pneumoniae strains were grown on agar plates overnight and diluted in saline at proper concentration. The inoculum titer was determined by plating a serial dilution of bacteria onto agar plates prior to and post challenge. In acute pneumonia models, C57/BL6 mice were inoculated with 1e4 to 2e8 colony-forming units (CFU) of K. pneumoniae clinical isolates in 50 μl saline intranasally. Anti-K pneumoniae monoclonal antibodies (mAbs) and human IgG1 control antibodies were given 1-24 hour post bacterial challenge (therapeutic dosing). Mouse survival was monitored daily until up to day 8. Survival data of representative experiments were plotted in Graphpad Prism software.
(§3) Mice were challenged with 2e8 CFU of Klebsiella pneumoniae Carbanpenemase (KPC) strain Kp961842_O2 or with 3e8 CFU of KPC strain Kp977778_O2, followed by the administration of anti-O2 mAbs. When administered at a concentration of 2 mg/kg 1 hour post bacterial infection, Class III anti-O2 LPS mAbs KPN42, KPN179-IgG1, and KPS44v2017 protected mice from lethal bacterial challenge with the multi-drug resistant KPC strains Kp961842_O2 (FIG. 6, left panel, and FIG. 10) and Kp977778_O2 (FIG. 6B, right panel).

[3] = system: O1 LPS; assay: Western blot of purified Klebsiella LPS serotypes, O1 LPS; format: binding, Klebsiella pneumoniae; conditions: FIG. 1A
Source text: FIGS. 1A-B show the expansion of the O2 LPS serotype in multi-drug resistant (MDR) strains of Klebsiella pneumoniae.
SDS-PAGE analysis followed by Silver Stain confirmed the purity of LPS. Human antibodies against O2 serotypes were then identified based on the reactivity of human B cells against the respective purified LPS. […] (FIG. 1A).

[4] = system: O2 LPS; assay: ELISA binding to O2 LPS; parameters: species or system Klebsiella pneumoniae; conditions: secondary screening, ELISA
Summary of the method: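 Serial dilutions of monoclonal antibodies bound to LPS-coated plates for 1 h at room temperature, detected with alkaline phosphatase-conjugated anti-human IgG (1 h) and pNPP substrate (30 min). Absorbance read at 405 nm; EC50 values derived from binding curves.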

[5] = system: O1 LPS; assay: ELISA binding to O1 LPS; parameters: species or system Klebsiella pneumoniae; conditions: secondary screening
Protocol: The coated plates were incubated with cell culture supernatants from polyclonally stimulated lymphocytes (AMVBRA) or from monoclonal immortalized B cells (donor interrogations) containing fully human antibodies or with diluted plasma samples (PBMC donor selections) for 1 hour at room temperature. The plates were then washed with PBS containing 0.1% Tween-20 (PBS-T). Secondary antibody was added; either Alkaline Phosphatase-conjugated Goat Anti-Human IgG-AP (Southern Biotech, 2040-04, 1:1000 in PBS-B) or Peroxidase AffiniPure F(ab′)2 Fragment Goat Anti-Human IgG, Fc Fragment Specific (Jackson ImmunoResearch #309 036 098, 1:5000 in PBS-B) were used. Secondary antibodies were typically incubated for 1 h. Plates were washed three times with PBS-T, and P-NitroPhenyl Phosphate (pNPP, Sigma-Aldrich, cat #N2765-100TAB) or Sureblue (KPL, 53-00-03) substrates were added and incubated for 10 min or until the development of a colorimetric reaction. In the case of the HRP substrate Sureblue, the reaction was stopped by adding an equal volume of 0.2N HCl. The absorbance at 405 nm (pNPP) or 450 nm (Sureblue) was measured by a microplate reader (Biotek, Elx808).
The coated plates were incubated with serial dilutions of the monoclonal antibodies for 1 hour at room temperature. The plates were then washed with PBS containing 0.1% Tween-20 (PBS-T). Alkaline Phosphatase-conjugated Goat Anti-Human IgG (Southern Biotech, 2040-04, 1:1000 in PBS-B) was added. The secondary antibody reactions were incubated for 1 h. Plates were washed three times with PBS-T, and P-NitroPhenyl Phosphate (pNPP, Sigma-Aldrich, cat #N2765-100TAB) substrate was added and incubated for 30 min or until the development of a colorimetric reaction. The absorbance at 405 nm was measured by a microplate reader (Biotek, Elx808). The data was plotted with Graphpad Prism software. Representative mAbs from each class were tested for their binding to O1 LPS (FIG. 2A) and O2 LPS (FIG. 2B), and EC50 values were obtained (FIG. 2C). The majority of the anti-O2 LPS mAbs bound to both O1 and O2 LPS by ELISA. […] None of these LPS mAbs bound to the 03, 04, 05, 07, or 012 LPS serotypes (see e.g., FIG. 1A).

[6] = system: O1 LPS activation of NF-κB in RAW264.7-lux cells; assay: LPS neutralization assay (NF-κB luciferase, RAW264.7-lux), O1 LPS; format: cell-based, murine; conditions: for neutralizing activity against O1 LPS (NF-κB activation): human IgG1 format; for neutralization of LPS-O1: secondary screening
Summary of the method: as §1

[7] = system: KPC strain Kp977778_O2; assay: Lethal pneumonia model, KPC strain Kp977778_O2; format: in vivo, Klebsiella pneumoniae; conditions: C57/BL6 mice, 3e8 CFU; mAb 2 mg/kg 1 hour post infection; survival
Protocol: as §2, §3

[8] = system: K. pneumoniae 8570ΔcpsBLux (O2); assay: Opsonophagocytic killing (OPK) assay, O2 capsule mutant; format: cell-based, Klebsiella pneumoniae; parameters: key to D Capsule OPK O2: +++: Strongly positive activity; +: Positive activity; +/−: Somewhat positive depending upon the test conditions
Summary of the method: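 Luminescent capsule-deficient K. pneumoniae strains were mixed with DMF-differentiated HL-60 cells, 1:10 baby rabbit serum and anti-O2 LPS mAbs (2 ng–2.5 μg/mL), then shaken for 2 h at 37 °C. Killing % came from luminescence (RLU) against no-antibody and negative-control mAb wells, with >40% scored as positive.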

[9] = system: K. pneumoniae O1/O2; assay: Mouse protection models (O1/O2), Table 7 summary; format: in vivo, Klebsiella pneumoniae; parameters: key: +++: Strongly positive activity; +: Positive activity; +/−: Somewhat positive depending upon the test conditions; conditions: mouse pneumonia models
Protocol: As described in more detail in below, anti-O2 LPS mAbs were tested for: 1) binding to O1 and O2 LPS (see Example 5); 2) LPS neutralization (LPS-Neut) against O1 and O2 LPS (see Example 7); 3) OPK against capsule mutant strain 43816ΔcpsB lux (O1) and 8570ΔcpsB lux (O2) (see Example 8); and 4) protective activity in pneumonia models (see Example 9). O2 LPS mAbs were subsequently divided into three classes based on their in vitro activities. Class I mAbs were characterized as Binding (O1+O2+)/OPK (O1−O2+); Class 2 mAbs were characterized as Binding (O1+O2+)/OPK (O1+O2+); and Class III mAbs were characterized as Binding (O1±O2+)/OPK (O1−O2+).
as §2, with “Anti-K pneumoniae monoclonal antibodies (mAbs) and human IgG1 control antibodies were given 1-24 hour post bacterial challenge (therapeutic dosing).” left out, “Survival data of representative experiments were plotted in Graphpad Prism software.” left out

B1: KPD1: Class I anti-O2 antigen human mAb; VH SEQ ID NO: 134, VL SEQ ID NO: 135 (antibody, V domains shown)
VH: QVQLQESDPRLVKPSETLSLTCSVSGVSITSNTYWWAWIRQPPGKKLEWIGSLSYSGDTYYNPSLTSRVTISRDIHQNQFFLELNSVTAADTAMYYCARDPDIIRNFQFDYWGRGTLVTVSS
VL: EIVLTQSPGILSLSPGERATLSCRVSQILYMSHLAWYQHKPGQAPRLLIYGASIRATGVPDRFSGSGSGTDFTLTISRLEPEDFAVYYCQQYGASPTFGQGTMVEIK
modifications: Description of Artificial Sequence: SyntheticKPD1 VH polypeptide; Description of Artificial Sequence: SyntheticKPD1 VL polypeptide
neutralizing activity against O2 LPS (NF-κB activation) [1]: blocked
neutralization of LPS-O2 [1]: neutralized
protection from lethal bacterial challenge, Kp961842_O2 [2]: did not protect
cross-reactivity with O1 LPS [3]: showed cross-reactivity with O1 LPS
binding to LPS-O2 [4]: showed binding
binding to LPS-O1 [5]: showed binding
neutralizing activity against O1 LPS (NF-κB activation) [6]: blocked
neutralization of LPS-O1 [6]: neutralized
protection from lethal bacterial challenge, Kp977778_O2 [7]: did not protect
OPK activity against O2 capsule mutant ([8]; secondary screening): showed OPK activity

B2: KPN70: Class I anti-O2 antigen human mAb; VH SEQ ID NO: 44, VL SEQ ID NO: 45 (antibody, V domains shown)
VH: QVQLQESGPGLVKPSETLSLTCTVSGGSISTYYWNWIRQSPGKELEWIANIHQSGTTYYNPSLKSRVTMSVDTSKNQFSLKVISVTAADTAVYYCARESDDGYKWNYFDYWGQGTLVTVSS
VL: EIVLTQSPASLSLSPGERATLSCRASQIVTNYLAWYQHKPGQAPRLLIFDMSIRAAGIPARFSGSGSGTDFTLTISSLEPEDFAVYYCQHRSNWPLFTFGPGTKVDIK
modifications: Description of Artificial Sequence: SyntheticKPN70 VH polypeptide; Description of Artificial Sequence: SyntheticKPN70 VL polypeptide
neutralizing activity against O2 LPS (NF-κB activation) [1]: blocked
neutralization of LPS-O2 [1]: neutralize
protection from lethal bacterial challenge, Kp961842_O2 [2]: did not protect
Mouse protection models (O1/O2) [9]: +/−
neutralizing activity against O1 LPS (NF-κB activation) [6]: blocked
neutralization of LPS-O1 [6]: neutralize
protection from lethal bacterial challenge, Kp977778_O2 [7]: did not protect
D Capsule OPK O2 ([8]; capsule mutant strain 8570ΔcpsB lux (O2)): +++
